We go through three variants from IntAct's records for PubMed 25783203.

B1: Vacuolar protein sorting-associated protein 33A (Homo sapiens), Q96AX1 (parent)
chain: MAAHLSYGRVNLNVLREAVRRELREFLDKCAGSKAIVWDEYLTGPFGLIAQYSLLKEHEVEKMFTLKGNRLPAADVKNIIFFVRPRLELMDIIAENVLSEDRRGPTRDFHILFVPRRSLLCEQRLKDLGVLGSFIHREEYSLDLIPFDGDLLSMESEGAFKECYLEGDQTSLYHAAKGLMTLQALYGTIPQIFGKGECARQVANMMIRMKREFTGSQNSIFPVFDNLLLLDRNVDLLTPLATQLTYEGLIDEIYGIQNSYVKLPPEKFAPKKQGDGGKDLPTEAKKLQLNSAEELYAEIRDKNFNAVGSVLSKKAKIISAAFEERHNAKTVGEIKQFVSQLPHMQAARGSLANHTSIAELIKDVTTSEDFFDKLTVEQEFMSGIDTDKVNNYIEDCIAQKHSLIKVLRLVCLQSVCNSGLKQKVLDYYKREILQTYGYEHILTLHNLEKAGLLKPQTGGRNNYPTIRKTLRLWMDDVNEQNPTDISYVYSGYAPLSVRLAQLLSRPGWRSIEEVLRILPGPHFEERQPLPTGLQKKRQPGENRVTLIFFLGGVTFAEIAALRFLSQLEDGGTEYVIATTKLMNGTSWIEALMEKPF
partner: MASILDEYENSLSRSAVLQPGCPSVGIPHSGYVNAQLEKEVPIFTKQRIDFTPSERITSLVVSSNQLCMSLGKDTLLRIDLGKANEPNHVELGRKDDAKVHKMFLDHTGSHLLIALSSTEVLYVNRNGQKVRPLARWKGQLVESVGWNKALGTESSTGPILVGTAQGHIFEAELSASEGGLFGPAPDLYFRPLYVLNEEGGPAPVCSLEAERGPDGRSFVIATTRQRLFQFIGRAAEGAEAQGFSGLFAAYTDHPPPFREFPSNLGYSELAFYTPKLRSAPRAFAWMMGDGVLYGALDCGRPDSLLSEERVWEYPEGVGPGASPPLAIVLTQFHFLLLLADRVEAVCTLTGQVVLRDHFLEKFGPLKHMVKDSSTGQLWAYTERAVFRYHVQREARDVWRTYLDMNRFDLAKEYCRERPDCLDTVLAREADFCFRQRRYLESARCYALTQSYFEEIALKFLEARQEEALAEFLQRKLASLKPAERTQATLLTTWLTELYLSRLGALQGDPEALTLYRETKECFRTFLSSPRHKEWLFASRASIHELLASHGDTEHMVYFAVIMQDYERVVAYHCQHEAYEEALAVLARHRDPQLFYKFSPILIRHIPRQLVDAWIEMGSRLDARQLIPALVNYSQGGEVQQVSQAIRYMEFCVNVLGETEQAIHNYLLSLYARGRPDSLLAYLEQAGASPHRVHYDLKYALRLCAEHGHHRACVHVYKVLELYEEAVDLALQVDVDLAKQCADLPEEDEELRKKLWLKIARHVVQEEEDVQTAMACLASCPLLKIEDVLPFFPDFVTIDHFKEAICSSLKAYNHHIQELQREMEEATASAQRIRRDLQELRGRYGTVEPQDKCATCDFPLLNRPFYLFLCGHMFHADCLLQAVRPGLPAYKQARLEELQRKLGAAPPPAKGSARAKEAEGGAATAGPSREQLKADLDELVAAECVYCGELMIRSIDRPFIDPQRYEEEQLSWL

The variants in the test derive from B1. As to conditions: with vps18_human VPS18, Q9P253.
In the case of MAAHLSYGRVNLNVLREAVRRELREFLDKCAGSKAIVWDEYLTGPFGLIAQYSLLKEHEVEKMFTLKGNRLPAADVKNIIFFVRPRLELMDIIAENVLSEDRRGPTRDFHILFVPRRSLLCEQRLKDLGVLGSFIHREEYSLDLIPFDGDLLSMESEGAFKECYLEGDQTSLYHAAKGLMTLQALYGTIPQIFGKGECARQVANMMIRMKREFTGSQNSIFPVFDNLLLLDRNVDLLTPLATQLTYEGLIDEIYGIQNSYVKLPPEKFAPKKQGDGGKDLPTEAKKLQLNSAEELYAEIRDKNFNAVGSVLSKKAKIISAAFEERHNAKTVGEIKQFVSQLPHMQAARGSLANHTSIAELIKDVTTSEDFFDKLTVEQEFMSGIDTDKVNNYIEDCIAQKHSLIKVLRLVCLQSVCNSGLKQKVLDYYDREILQTYGYEHKLTLHNLEKAGLLKPQTGGRNNYPTIRKTLRLWMDDVNEQNPTDISYVYSGYAPLSVRLAQLLSRPGWRSIEEVLRILPGPHFEERQPLPTGLQKKRQPGENRVTLIFFLGGVTFAEIAALRFLSQLEDGGTEYVIATTKLMNGTSWIEALMEKPF [K429D;I441K], the “effect of a mutation on the interaction” value is on record as “disrupting interaction”.
For MAAHLSYGRVNLNVLREAVRRELREFLDKCAGSKAIVWDEYLTGPFGLIAQYSLLKEHEVEKMFTLKGNRLPAADVKNIIFFVRPRLELMDIIAENVLSEDRRGPTRDFHILFVPRRSLLCEQRLKDLGVLGSFIHREEYSLDLIPFDGDLLSMESEGAFKECYLEGDQTSLYHAAKGLMTLQALYGTIPQIFGKGECARQVANMMIRMKREFTGSQNSIFPVFDNLLLLDRNVDLLTPLATQLTYEGLIDEIYGIQNSYVKLPPEKFAPKKQGDGGKDLPTEAKKLQLNSAEELYAEIRDKNFNAVGSVLSKKAKIISAAFEERHNAKTVGEIKQFVSQLPHMQAARGSLANHTSIAELIKDVTTSEDFFDKLTVEQEFMSGIDTDKVNNYIEDCIAQKHSLIKVLRLVCLQSVCNSGLKQKVLDYYDREILQTYGDEHILTLHNLEKAGLLKPQTGGRNNYPTIRKTLRLWMDDVNEQNPTDISYVYSGYAPLSVRLAQLLSRPGWRSIEEVLRILPGPHFEERQPLPTGLQKKRQPGENRVTLIFFLGGVTFAEIAALRFLSQLEDGGTEYVIATTKLMNGTSWIEALMEKPF [K429D;Y438D] the value was “disrupting interaction”.
For MAAHLSYGRVNLNVLREAVRRELREFLDKCAGSKAIVWDEYLTGPFGLIAQYSLLKEHEVEKMFTLKGNRLPAADVKNIIFFVRPRLELMDIIAENVLSEDRRGPTRDFHILFVPRRSLLCEQRLKDLGVLGSFIHREEYSLDLIPFDGDLLSMESEGAFKECYLEGDQTSLYHAAKGLMTLQALYGTIPQIFGKGECARQVANMMIRMKREFTGSQNSIFPVFDNLLLLDRNVDLLTPLATQLTYEGLIDEIYGIQNSYVKLPPEKFAPKKQGDGGKDLPTEAKKLQLNSAEELYAEIRDKNFNAVGSVLSKKAKIISAAFEERHNAKTVGEIKQFVSQLPHMQAARGSLANHTSIAELIKDVTTSEDFFDKLTVEQEFMSGIDTDKVNNYIEDCIAQKHSLIKVLRLVCLQSVCNSGLKQKVLDYYKREILQTYGDEHKLTLHNLEKAGLLKPQTGGRNNYPTIRKTLRLWMDDVNEQNPTDISYVYSGYAPLSVRLAQLLSRPGWRSIEEVLRILPGPHFEERQPLPTGLQKKRQPGENRVTLIFFLGGVTFAEIAALRFLSQLEDGGTEYVIATTKLMNGTSWIEALMEKPF [Y438D;I441K] the value was “disrupting interaction”.
